From patent CN114989297A (BEIJING KEY BIOTECHNOLOGY CO LTD, dated 2022)

T1: 单核细胞增生李斯特氏菌鞭毛蛋白免疫原 (Listeria monocytogenes, UniProt Q02551 1-287)
T1 construct: Native flagellin preparation concentrated by ultrafiltration, not a recombinant protein; purity beyond the 33 kD band is not described; also called 免疫原蛋白; 抗原
T1 sequence (looked up): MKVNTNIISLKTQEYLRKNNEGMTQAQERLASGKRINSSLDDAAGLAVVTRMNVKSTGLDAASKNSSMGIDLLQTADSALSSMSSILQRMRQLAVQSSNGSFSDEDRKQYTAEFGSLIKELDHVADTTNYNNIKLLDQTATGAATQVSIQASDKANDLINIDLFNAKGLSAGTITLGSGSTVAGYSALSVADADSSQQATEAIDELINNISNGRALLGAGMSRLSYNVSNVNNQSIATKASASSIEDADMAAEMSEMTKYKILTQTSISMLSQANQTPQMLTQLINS


Biological target: T1, 单核细胞增生李斯特氏菌鞭毛蛋白免疫原
Assay: IAsys Plus optical biosensor, immunogen immobilised on CMD cuvette, antibody at 5 concentrations, FASTfit

Row | Binder | Kd [nM]
1 | LM6G3单克隆抗体 (antibody, V domains shown) VH: VKPGGSLKLSCAASITAQPSPRMSWVRQTPDKRLEWVAICFEKKIGLYYPDSVKGRFTISRDQDKQTLYLQMSSLKSEDTAMYYCEHEWWDEQVSPWGQGTTVTVS VL: DLVMTQTAPSVPVTPGESVSISCRSTFKPWPKYEPLHLYWFLQRPGQSPQLLIYMWFNLASGVPDRFSGSGSGTAFTLRISRVEAEDVGVYYCMNACCYYRQFGSGTKLEIK | 8.73
2 | LM3F6单克隆抗体 (antibody, V domains shown) VH: VKPGGSLKLSCAASSWAQYINTMSWVRQTPDKRLEWVAIISYYSRDKYYPDSVKGRFTISRDQDKQTLYLQMSSLKSEDTAMYYCPYTRPPVIWMTWGQGTTVTVS VL: DLVMTQTAPSVPVTPGESVSISCRSTQGYCRKLVGDYLYWFLQRPGQSPQLLIYWHPNLASGVPDRFSGSGSGTAFTLRISRVEAEDVGVYYCLCCRCKSGGFGSGTKLEIK | 2.46
